Test system: caspase 8 in HCT116 fractions
Assay: Caspase 8 activity of subcellular (iodixanol gradient) fractions
Format: cell-based, Homo sapiens
Conditions: cells expressing MPZ-GFP; first and second ERGIC-associated fractions
Procedure: This subcellular fractionation protocol was adapted from [Xu et al. (2015)].
Cells transfected with MPZ-GFP were harvested from a 15 cm dish as described in the Size Exclusion Chromatography section above. The cell pellet was resuspended in 400 μl of homogenization buffer (10 mM triethanolamine-acetic acid, pH 7.4, 0.25 M sucrose, 1 mM sodium EDTA, protease inhibitor cocktail (Roche)) and lysed via mechanical shearing through a 25-gauge needle on a 1 ml syringe with 13 passes. (Note on protease inhibitor: 4x protease inhibitor was used to lyse samples used for Western blotting to minimize degradation of proteins, while 1x protease inhibitor was used in sample lysis for caspase glo 8 assay so that excess inhibitor would not interfere with cleavage of luminescent substrate.) Homogenized sample was then centrifuged at 2000xg for 15 min at 4°C to remove unlysed cells and the nuclear fraction. […]
Fractions from samples lysed with 4x protease inhibitor were subjected to TCA precipitation to concentrate protein content for immunoblotting. Fractions from samples lysed with 1x protease inhibitor were used for the caspase glo 8 assay (10 μl of each fraction + 10 μl of the caspase glo 8 reagent (Promega #PRG8200) incubated for 45 min at RT prior to measuring luminescence).

B1: MPZ-GFP: myelin protein zero with a C-terminal monomeric EGFP, expressed from plasmid (protein)
chain: IVVYTDREVHGAVGSRVTLHCSFWSSEWVSDDISFTWRYQPEGGRDAISIFHYAKGQPYIDEVGTFKERIQWVGDPRWKDGSIVIHNLDYSDNGTFTCDVKNPPDIVGKTSQVTLYVFEKVPTRYGVVLGAVIGGVLGVVLLLLLLFYVVRYCWLRRQAALQRRLSAMEKGKLHKPGKDASKRGRQTPVLYAMLDHSRSTKAVSEKKAKGLGESRKDKK
modifications: left off: monomeric EGFP, C-terminal, kept
notes: myelin protein zero with a C-terminal monomeric EGFP, expressed from plasmid
caspase 8 activity of ERGIC-associated fractions: harbored the majority of the caspase 8 activity in the cell lysate
